One test has as its system neutrophils. The experiment in a line: Transwell chemotaxis assay. The test is classed as cell-based, human. The procedure:
The cells migration after IL-17 (10-500 ng/ml), FM-0410 (10-500 ng/ml) or N-Formylmethionine-leucyl-phenylalanine (fmlp; 10^−6 M) treatment was quantified using CountBright™ Absolute Counting Beads. Data were presented as means±S.D. of n=3 healthy donors. Statistical analysis was conducted by one-way ANOVA followed by Bonferroni's for multiple comparisons. ^#P≤0.05, ^##P≤0.01, ^###P≤0.001, ^####P≤0.0001 vs Ctrl group; ^+P≤0.05 vs IL-17. Neutrophil isolation: Blood was taken according to local research ethics committee approval (QMERC2014/61). Informed consent was provided according to the Declaration of Helsinki. All blood samples were collected on the day of experiments from healthy donors and immediately used. Each condition has 3 biological replicates (3 different donors). Neutrophils were isolated using a double density histopaque gradient and hypotonic lysis as described previously. Transwell chemotaxis assay: Chemotaxis was assessed using a transwell assay. […] After 2 hours at 37° C., neutrophils were collected from the bottom wells and quantified by flow cytometry using CountBright™ Absolute Counting Beads (Thermofisher, Rugby, UK) as previously described.

Test [1] has as its system Human dermal blood endothelial cells (HDBEC). The experiment in a line: HDBEC stimulation (flow cytometry, IL-6 Elisa). The test is classed as cell-based. As to conditions: 100 ng/ml in combination with TNF-α (100 U/ml), 24 h. As to the method: FIG. 10: Human dermal blood endothelial cells (HDBEC) were treated with: IL-17 vehicle (Ctrl), IL-17 or FM-0410 (100 ng/ml), alone or in combination with TNF-α (100 U/ml) for 24 h. Cells were washed, gated in their totality and singlet before the identification of IL-17Rs (RA and RC) (A, B), ICAM (C) and VCAM (D) expression. Histogram values (expressed as MIF) indicate the total positive cells (A-D). In (E) are shown phase-contrast micrographs of confluent monolayers of untreated or treated (as reported before) HDBEC. Total adhesion (expressed as INT/mm^2, F) and % of transmigration (G) are calculated with Image Pro programme (DataCell, Finchampstead). Inflammatory supernatants from all experimental conditions were assayed by Elisa for IL-6 (H) expressed in pg/ml. Data were presented as means±S.D. of n=3 healthy donors. Statistical analysis was conducted by one-way ANOVA followed by Bonferroni's for multiple comparisons. ^#P≤0.05, ^##P≤0.01, ^###P≤0.001, ^####P≤0.0001 vs Ctrl group; *P≤0.05 vs TNF-α+IL-17 group; ^∘P≤0.05, ^∘∘∘P≤0.001, ^∘∘∘∘P≤0.0001 vs TNF-α group.
Human dermal blood endothelial cells (HDBEC): Primary human dermal blood endothelial cells (HDBECs) were purchased from PromoCell and cultured in the manufacturer's recommended endothelial cell growth medium MV (PromoCell, Heidelberg, Germany). HDBECs were seeded onto 12-well tissue culture plates after 4 passages at a seeding density yielding confluent monolayers. HDBEC monolayers were washed in endothelial cell growth medium MV warmed to 37° C. and stimulated with IL-17 or FM-0410 (100 ng/ml) alone or in a combination with TNF-α (100 U/ml) for 24 h at 37° C. Cells were stimulated for 24 h, before staining with IL-17Rs (RA or RC) or ICAM/VCAM adhesion receptors using a Flow cytometry assay. Supernatants were collected and measured to evaluate IL-6 or TNF-α levels.
Flow Cytometry: HDBEC, collected after 24 h of treatment, were washed with PBS without Ca^2+ and Mg^2+ containing 25 mM lactose for 20 min at room temperature with occasional mixing. […] Protein expression was analysed by flow cytometry on a Dako CyAn (Beckman Coulter, High Wycombe, U.K.), and data were analysed using MRFIow and FlowJo software operation. The unspecific binding of antibodies was quantified by using corresponding isotype controls.
Elisa assay: The levels of IL-6 at 24 h were measured using commercially available enzyme-linked immunosorbent assay kits (ELISA kit, R&D System, Milan, Italy) according to the manufacturer's instructions. […] The addition of 100 μl of the substrate and stop solution represented the last steps before the reading of absorbance (measured at 450 nm) on a microplate reader. Antigen levels in the samples were determined using a standard curve and expressed as pg/ml.
For orientation: In flow cytometry, cells or beads pass a laser one at a time.

B1: IL-17: recombinant mouse IL-17 purchased from R&D System; full-length cytokine used as comparator and stimulus (protein, UniProt Q62386 26-158, looked up)
Interleukin-17A: AAIIPQSSACPNTEAKDFLQNVKVNLKVFNSLGAKVSSRRPSDYLNRSTSPWTLHRNEDPDRYPSVIWEAQCRHQRCVNAEGKLDHHMNSVLIQQEILVLKREPESCPFTFRVEKMLVGVGCTCVASIVRQAA
On to B1, for which the “chemotactic activity compared to positive control fmlp (10^−6 M)” value with neutrophils (500 ng/ml) is listed as “almost similar to positive control fmlp”. In addition, the “chemotactic effect on neutrophils” value in the test with neutrophils (10-500 ng/ml, vs Control group) was “concentration-dependent chemotactic effect”. In addition, in test [1], the ICAM expression result is “upregulation”, the IL-17RA receptor expression entry is “No effects”, the IL-17RC receptor expression result was “No effects” and the VCAM expression entry is reported as “upregulation”.

Source of the values: patent publication US20260035452A1 (THE UNIVERSITY OF BIRMINGHAM, priority 2022, published 2026).
